# Laboratory results from publication PMC4737144.
# Tests used:
# [1] = tested on: Strep-RapZ (Escherichia coli); test: EMSA
# [2] = tested on: Hfq (Escherichia coli); test: EMSA
substance,measurement,setting,value
GlmY,Kd,[1],0.03 µM
same,binding signal (fold higher Hfq needed than for GlmZ),[2],10
